Data set [1] in a line: melting temperature (DSF); higher = more thermostable. In outline:
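Values are melting temperatures from differential scanning fluorimetry. Candidate enzymes were expressed in E. coli C41(DE3), purified on nickel beads and freed by SUMO protease cleavage. In sealed PCR plates on a Bio-Rad CFX96, 45 μL enzyme (0 to 0.3 mg/mL) was combined with 5 μL 5X Sypro Orange. Fluorescence was recorded from 25 °C for 250 cycles, rising 0.3 °C per cycle at a ramp of 0.3 °C/s.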

The nature of data set [2]: purified protein yield per well (BCA); higher = higher soluble expression. In outline: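 Expression was done in E. coli C41(DE3), using 2 mL autoinduction cultures with 100 µg/mL kanamycin incubated at 37 °C for 2 h and at 18 °C for 40 h. Protein was purified on Ni-charged magnetic beads and released by SUMO protease cleavage. Yield of purified protein per well was measured with the Pierce Rapid Gold BCA kit; values below 25 ug (0.1 mg/mL) are below detection.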

Data set [3] in a line: PET hydrolysis, aromatic products released after 48 h (umol product/mg enzyme); higher = more PET depolymerization activity. Put shortly: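 Amorphous PET film or crystalline PET powder (3.5 mg) in 450 μL of 50 mM NaCitrate (pH 4.5, 5.5), 50 mM NaPhosphate (pH 6.5, 7.5) or glycine (pH 8.5) received 5 μg (50 μL) of candidate enzyme. That enzyme was purified on nickel beads and freed of its tag by SUMO cleavage. After 48 h at 40 or 60 °C in sealed plates without shaking, absorbance of the supernatant at 260 and 280 nm was read against buffer blanks. PET hydrolysis activity is this aromatic product expressed per mg enzyme.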

Where [4] appears, read: substrate: aFilm, 40 °C, pH 4.5.
[5] abbreviates: substrate: aFilm, 40 °C, pH 5.5.
Setting [6] is: substrate: aFilm, 40 °C, pH 6.5.
[7] abbreviates: substrate: aFilm, 40 °C, pH 7.5.
Setting [8] is: substrate: aFilm, 60 °C, pH 4.5.
Setting [9] is: substrate: aFilm, 60 °C, pH 5.5.
Setting [10] is: substrate: aFilm, 60 °C, pH 6.5.
Setting [11] is: substrate: aFilm, 60 °C, pH 7.5.
The mark [12] stands for this setting: substrate: cryPow, 40 °C, pH 4.5.
Where [13] appears, read: substrate: cryPow, 40 °C, pH 5.5.
[14] abbreviates: substrate: cryPow, 40 °C, pH 6.5.
[15] abbreviates: substrate: cryPow, 40 °C, pH 7.5.
[16] abbreviates: substrate: cryPow, 60 °C, pH 4.5.
Where [17] appears, read: substrate: cryPow, 60 °C, pH 5.5.
[18] abbreviates: substrate: cryPow, 60 °C, pH 6.5.
Where [19] appears, read: substrate: cryPow, 60 °C, pH 7.5.

± gives the standard deviation of the averaged measurements. Bounds are passed on as bounds.

With “MLGALAIVGGTRPATGADNPYQRGPDPTPASVSAGRGTFATAQVSVGAGNGFGGGVIYYPTDTSQGTFGAIAVVPGYTATWAAEGAWMGHWLASYGFVVIGIDTNTRNDWDTARGTQLLAALDYLTQRSSVRDRVDATRTAVMGHSMGGGGAAYASLQRPSLKTSVGLAPFSPSQNLTTTRVPTMLLSGQNDGTVTPSSVQNLYNGIPAGVEKAYLELTGAGHGFPTSNNPTMMRTVIPWFKIFVDSDTRYTQFLCPLADSNGIRTYQSTCPLVPSTPPTTTTTPTSTTTTSTTSTTPTTTTTTPQPGGACSATYRTVNSWSGGYQGEVTVTAGTSAVTGWTVRWSLGSGQTISQVWNGTLTVDGPTASVRNVSYNGSLGANASTTFGFIGGGTPPTSTLSCTSP [ESM006]”, the melting temperature in data set [1] stood at 63.1 C. The “purified protein yield per well” value in data set [2] turned out to be 577 µg. Moreover, the PET hydrolysis in data set [3] (setting [4]), in data set [3] (setting [5]), in data set [3] (setting [6]), in data set [3] (setting [7]), in data set [3] (setting [8]) and in data set [3] (setting [9]) was below 3 throughout. Also, the PET hydrolysis in data set [3] (setting [10]) is below 3; in data set [3] (setting [11]), below 3; in data set [3] (setting [12]) it was below 3; in data set [3] (setting [13]), 6.5 ± 0.71; in data set [3] (setting [14]) it was 13 ± 1.4; in data set [3] (setting [15]), 17.5 ± 6.4. Also, the PET hydrolysis in data set [3] (setting [16]), in data set [3] (setting [17]), in data set [3] (setting [18]) and in data set [3] (setting [19]) was below 3 in each case.

In data set [1], “MLTITVATGSASAADNPYQRGPDPTRTSVTAVNGPFANTSVSVPTGYGFNGGRIYYPTDTSQGTFGAIAISPGYTALFSAELAWMGPWLASHGFVVIGIETNSRNDFDTARGTQLLAALDYLTQQSPVRDRVDPNRLAVAGHSMGGGGALSAATRRSSLKAVVGIAPYSPSSNLANDRVPTMIFAGQADTVVTPSYATGLYNSLPTTTESAYLEVAGADHGFMVGRSNPVMVRTMLPFVKMFIDNDARYSQFLCPLLDSSGVVTYRSTCPLLPSTPPTSTPTPTDPPTPTPTPTVPPGSASEIVGTQSSRCIDVPNASRNNGTRVQLYDCNKQTNQA [ESM121]” registered a melting temperature of 58.9 C. Also, the “purified protein yield per well” value in data set [2] stood at 268 µg. Further, the PET hydrolysis in data set [3] (setting [4]), in data set [3] (setting [5]), in data set [3] (setting [6]), in data set [3] (setting [7]), in data set [3] (setting [8]) and in data set [3] (setting [9]) was below 3 throughout. Further, the PET hydrolysis in data set [3] (setting [10]) is below 3; in data set [3] (setting [11]), below 3; in data set [3] (setting [12]) it was 5.5 ± 0.71; in data set [3] (setting [13]) it was 15 ± 1.4; in data set [3] (setting [14]), 11; in data set [3] (setting [15]), 2.5 ± 3.5. Further, the PET hydrolysis in data set [3] (setting [16]), in data set [3] (setting [17]), in data set [3] (setting [18]) and in data set [3] (setting [19]) was below 3 each time.

In data set [1], “MMPSADAASTLADNPYQRGPDPTVASVAAAYGTFATAQLTVPPGNGFNGGSIYYPTDTSQTYGAVAIVPGYTARFADEEAWMGPRLASFGFVVIGVETNSRNDFDTARGTQLLAALDYLTNSSAVRDRVDRNRLAVIGHSMGGGGALVAADQRPSLKAAIGLAPYKPSGNLANNRVPTLILSGQNDTVVTPSYLDGLYPTLPAATPGAYILLSGADHLFFTRPNDIEMRSQIPWLKTFVDNDTRYSQFLCPTLKDTTSVARSTAKCSLIPSGGNPSTPPSSSSPSPSSPASSSPPPSGAKHIVGAQSGRCVDVPNSSRTNGTRVQLYDCHSGTNQQWTYTSSRQLTVYGSMCLDAAGSGNGAAVQIYSCNGQANQQWNVNSNGTISGVQSGRCLDVWGTNNGQQIQLYDCHGQANQRFSLS [TEP054]” displayed a melting temperature of 60.7 C. Moreover, the “purified protein yield per well” value in data set [2] was determined as 297 µg. In addition, the PET hydrolysis in data set [3] (setting [4]) was 3; in data set [3] (setting [5]), 8 ± 1.4; in data set [3] (setting [6]), 9.5 ± 0.71; in data set [3] (setting [7]), below 3; in data set [3] (setting [8]), below 3; in data set [3] (setting [9]), below 3. The PET hydrolysis is below 3 in data set [3] (setting [10]); below 3 in data set [3] (setting [11]); 14 ± 4.2 in data set [3] (setting [12]); 24 ± 2.8 in data set [3] (setting [13]); 35 in data set [3] (setting [14]); 18 ± 2.8 in data set [3] (setting [15]). The PET hydrolysis in data set [3] (setting [16]) came out at 2 ± 2.8; in data set [3] (setting [17]) it was 7 ± 1.4; in data set [3] (setting [18]), 7.5 ± 2.1; in data set [3] (setting [19]), 1.5 ± 2.1.

For “MNAVGPTTPPTTTPPTTPAGDNPYQRGPDPTVASVAAQYGPFATAQITVPPGNGFNGGFIYYPTDSSHTYGAVAIVPGYTALFADEEAWMGPRLASFGFVVIGVETNSRTDYDTARGTQLLAALDYLTNSSAVRDRVDRNRLAVIGHSMGGGGALYAATQRPSLKAAIGLAPFKPSGNLASDTVPTMIIGGINDTTVTPSYLDGLYPTLPAATPGAYLQLANADHLYFTRPNDIEMRSQIEWLKIFVDNDTRYTPFLCPSIKDTTGIVRSNVKCSTIPGGGSTSPPTTTPPPAGSNRIVGAQSGRCVDVPGASQTNGTRVQLYDCNGQPNQAWTLTASKQLTVYGSRCLDAAGSGNGSAVQIYSCNGQANQQWNVNANGTITGVQSGRCLDVWGTGNGQQVQIYDCNGQANQRFGLS [ESM052]”, the melting temperature in data set [1] came out at 61.6 C. In addition, in data set [2], the “purified protein yield per well” value was 248 µg. For the same sequence, the PET hydrolysis in data set [3] (setting [4]) is 4.5 ± 0.71; in data set [3] (setting [5]), 7.5 ± 0.71; in data set [3] (setting [6]), below 3; in data set [3] (setting [7]), below 3; in data set [3] (setting [8]), below 3; in data set [3] (setting [9]) it was below 3. For the same sequence, the PET hydrolysis is below 3 in data set [3] (setting [10]); below 3 in data set [3] (setting [11]); 13.5 ± 2.1 in data set [3] (setting [12]); 28.5 ± 2.1 in data set [3] (setting [13]); 36.5 ± 3.5 in data set [3] (setting [14]); 17.5 ± 7.8 in data set [3] (setting [15]). Moreover, the PET hydrolysis in data set [3] (setting [16]) is below 3; in data set [3] (setting [17]) it was 7.5 ± 0.71; in data set [3] (setting [18]), 5.5 ± 0.71; in data set [3] (setting [19]), below 3.

The record behind these values is the supplement of paper PMC12455559.
